Paper PMC10229567

Molecular target: LOXL3 (UniProt P58215)
Assay: Co-IP of LOXL3 with LOXL3
Settings: reference: wild type; sites S704

Chain of UniProt P58215 (P58215 whole entry S704A): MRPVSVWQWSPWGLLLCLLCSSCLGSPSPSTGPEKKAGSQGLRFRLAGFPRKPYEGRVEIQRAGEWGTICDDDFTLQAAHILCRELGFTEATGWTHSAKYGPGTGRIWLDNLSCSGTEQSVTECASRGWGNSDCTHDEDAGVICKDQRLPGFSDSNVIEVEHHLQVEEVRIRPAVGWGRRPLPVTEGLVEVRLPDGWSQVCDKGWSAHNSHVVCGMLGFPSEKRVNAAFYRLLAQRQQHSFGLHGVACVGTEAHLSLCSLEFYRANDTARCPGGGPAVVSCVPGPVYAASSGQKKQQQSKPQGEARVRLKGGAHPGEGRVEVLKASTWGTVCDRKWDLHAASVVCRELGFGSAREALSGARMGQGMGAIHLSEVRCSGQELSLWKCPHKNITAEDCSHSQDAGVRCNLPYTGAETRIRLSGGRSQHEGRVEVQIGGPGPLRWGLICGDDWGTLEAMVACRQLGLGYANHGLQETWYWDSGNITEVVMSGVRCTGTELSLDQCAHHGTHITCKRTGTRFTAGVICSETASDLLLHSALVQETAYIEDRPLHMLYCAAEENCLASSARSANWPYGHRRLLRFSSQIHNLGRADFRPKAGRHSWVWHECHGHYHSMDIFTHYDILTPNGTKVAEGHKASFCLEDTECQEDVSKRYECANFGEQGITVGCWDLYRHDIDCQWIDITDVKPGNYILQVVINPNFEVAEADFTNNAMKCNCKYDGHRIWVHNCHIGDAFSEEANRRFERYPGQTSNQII

LOXL3 (from UniProt P58215) S704A was tested, and the “binding against the reference” value was “weaker”.
